Data on 1 protein can be found in paper PMC2739136.

Positions count from the first letter of the chain named.

Common to all, as to experiment: pull-down
For data set [1], the target named is T1, MBP-TraR A150V, P33905.
T1 chain: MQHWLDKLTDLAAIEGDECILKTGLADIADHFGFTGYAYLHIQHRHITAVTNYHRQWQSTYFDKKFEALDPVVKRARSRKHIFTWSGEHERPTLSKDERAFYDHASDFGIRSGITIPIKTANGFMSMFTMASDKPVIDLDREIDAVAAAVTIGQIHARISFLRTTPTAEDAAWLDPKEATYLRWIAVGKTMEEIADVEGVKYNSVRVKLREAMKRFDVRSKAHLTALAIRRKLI

The target in data set [2] is T2, MBP-TraR A222S, P33905.
T2 chain: T1 chain with V150A, A222S

In data set [3] the target is T3, MBP-TraR F161K, P33905.
T3 chain: T1 chain with V150A, F161K

Data set [4] addresses T4, MBP-TraR G123R, P33905.
T4 chain: T1 chain with G123R, V150A

Data set [5] addresses T5, MBP-TraR I229Y, P33905.
T5 chain: T1 chain with V150A, I229Y

Data set [6] deals with T6, MBP-TraR K119A, P33905.
T6 chain: T1 chain with K119A, V150A

Data set [7] deals with T7, MBP-TraR L5M, P33905.
T7 chain: T1 chain with L5M, V150A

The target of data set [8] is T8, MBP-TraR V146A, P33905.
T8 chain: T1 chain with V146A, V150A

B1: native TraR (wild type) (protein)
chain: T1 chain with V150A
Consider B1, for which the heterodimer formation (% of wild type) (% of wild type) in data set [1] came to 15; in data set [2], 53; in data set [3] it was 39; in data set [4] it was 49; in data set [5], 23; in data set [6] it was 94. Moreover, the heterodimer formation (% of wild type) (% of wild type) in data set [7] stood at 99; in data set [8] it was 61.
